According to patent US20070243194A1:

Tests used:
[1] = target: hIGF-1R-Fc mutant SD008 (S258F) (human) (UniProt P08069); assay: SPR, Fab on receptor-Fc held on M13-C06 chip
[2] = target: hIGF-1R-Fc mutant SD019 (A739W_I741F) (human) (UniProt P08069); assay: SPR, Fab on receptor-Fc held on M13-C06 chip
Sequence of hIGF-1R-Fc mutant SD019 (A739W_I741F) (human) (P08069 31-933, stated change not applied): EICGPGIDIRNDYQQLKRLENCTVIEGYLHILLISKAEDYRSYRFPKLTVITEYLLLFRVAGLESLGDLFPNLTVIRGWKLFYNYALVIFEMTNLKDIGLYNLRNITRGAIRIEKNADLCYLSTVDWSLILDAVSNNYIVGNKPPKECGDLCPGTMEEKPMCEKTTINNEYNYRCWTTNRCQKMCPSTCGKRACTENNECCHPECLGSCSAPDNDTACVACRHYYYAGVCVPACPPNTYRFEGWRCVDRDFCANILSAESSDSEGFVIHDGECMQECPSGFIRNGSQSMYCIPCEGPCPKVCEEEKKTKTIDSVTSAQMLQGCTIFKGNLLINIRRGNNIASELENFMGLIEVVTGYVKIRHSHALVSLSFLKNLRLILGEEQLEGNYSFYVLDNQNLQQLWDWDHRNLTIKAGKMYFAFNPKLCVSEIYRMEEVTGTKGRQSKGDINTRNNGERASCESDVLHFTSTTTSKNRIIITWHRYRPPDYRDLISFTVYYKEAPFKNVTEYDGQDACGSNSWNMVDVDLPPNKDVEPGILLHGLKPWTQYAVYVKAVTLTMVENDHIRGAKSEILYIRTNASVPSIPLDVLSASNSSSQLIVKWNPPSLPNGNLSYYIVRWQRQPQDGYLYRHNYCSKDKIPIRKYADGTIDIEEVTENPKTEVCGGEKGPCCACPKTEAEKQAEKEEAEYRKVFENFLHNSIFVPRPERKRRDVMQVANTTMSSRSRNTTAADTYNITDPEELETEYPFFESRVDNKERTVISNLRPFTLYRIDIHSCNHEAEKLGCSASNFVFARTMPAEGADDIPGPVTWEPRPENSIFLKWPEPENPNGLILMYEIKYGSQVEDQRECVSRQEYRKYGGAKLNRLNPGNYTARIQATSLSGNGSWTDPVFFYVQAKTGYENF

Sequence of hIGF-1R-Fc mutant SD008 (S258F) (human) (P08069 31-933, stated change not applied): as above

Biacore Relative RUmax [1]: 1.5
Biacore Relative RUmax [2]: 1.9
B1: M13-C06 Fab (Fab, V domains shown)
VH: EVQLLESGGGLVQPGGSLRLSCAASGFTFSIYRMQWVRQAPGKGLEWVSGISPSGGTTWYADSVKGRFTISRDNSKNTLYLQMNSLRAEDTAVYYCARWSGGSGYAFDIWGQGTMVTVSS
VL: DIQMTQSPLSLSASVGDRVTITCQASRDIRNYLNWYQQKPGKAPKLLIYDASSLQTGVPSRFGGSGSGTDFSFTIGSLQPEDIATYYCQQFDSLPHTFGQGTKLEIK
